The assay addresses T1, Recombinant mouse LSR-Fc (mouse, UniProt Q99KG5 36-206, limits assumed).
T1 construct: not shown: Fc part
T1 sequence (looked up): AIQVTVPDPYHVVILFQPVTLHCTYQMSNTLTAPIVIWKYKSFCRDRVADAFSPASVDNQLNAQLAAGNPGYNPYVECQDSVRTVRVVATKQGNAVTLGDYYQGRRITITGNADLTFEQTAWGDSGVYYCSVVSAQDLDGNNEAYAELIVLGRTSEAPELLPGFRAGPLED
Nature of the assay: ELISA, LSR-Fc coated on plate.

B1: Chicken mouse chimeric anti-LSR antibody (#27-6mF18) (antibody, V domains shown)
VH: AVTLDESGGGLQMPGGALSLVCRASGFDFSSYEMQWIRQAPGKGLEWVAGISGAGSGTRYGSAVKGRATISRDNGQSTVRLQLNNLRAEDTGIYFCARSSNIDAWGHGTEVTVST
VL: ALTQPASVSANLGGTVKITCSGGGRYAESYYYGWYQQKSPGSTPVTVIYWNDKRPSNIPSRFSGSLSGSTNTLTITGVQVEDEAVYFCGSYEDSRSAFGAGTTLTV
notes: Chicken-mouse chimeric antibody; also called anti-LSR monoclonal antibody #27-6 mF-18
For the molecule B1, the binding result was “binds”.

(Values after patent publication WO2024101382A1 (dated 2024).)
